Target: T1, human c-Met/Fc fusion protein (R&D Systems) (human, UniProt P08581 25-932)
T1 construct: Bought reagent; Coated on the ELISA plate at 2 ug/mL; also called human c-Met/Fc protein; not shown: Fc part of the bought fusion protein; not described
Assay: ELISA, human c-Met/Fc coated at 2 ug/mL, hybridoma culture, anti-mouse IgG-HRP
Description: Human c-Met/Fc fusion protein was seeded in an amount of 50 μL (2 μg/mL)/well to microtiter plates and allowed to adhere to the surface of each well. The antibody that remained unbound was removed by washing.
The hybridoma cell culture obtained in Reference Example 1.1.2 was added in an amount of 50 μL to each well of the plates and incubated for 1 hour. The cells remaining unreacted were washed out with a sufficient amount of Tris-buffered saline and Tween 20 (TBST). Goat anti-mouse IgG-horseradish peroxidase (HRP) was added to the plates and incubated for 1 hour at room temperature. The plates were washed with a sufficient amount of TBST, followed by reacting the peroxidase with a substrate (OPD). Absorbance at 450 nm was measured on an ELISA reader.

T1 sequence (P08581 25-932 limits assumed): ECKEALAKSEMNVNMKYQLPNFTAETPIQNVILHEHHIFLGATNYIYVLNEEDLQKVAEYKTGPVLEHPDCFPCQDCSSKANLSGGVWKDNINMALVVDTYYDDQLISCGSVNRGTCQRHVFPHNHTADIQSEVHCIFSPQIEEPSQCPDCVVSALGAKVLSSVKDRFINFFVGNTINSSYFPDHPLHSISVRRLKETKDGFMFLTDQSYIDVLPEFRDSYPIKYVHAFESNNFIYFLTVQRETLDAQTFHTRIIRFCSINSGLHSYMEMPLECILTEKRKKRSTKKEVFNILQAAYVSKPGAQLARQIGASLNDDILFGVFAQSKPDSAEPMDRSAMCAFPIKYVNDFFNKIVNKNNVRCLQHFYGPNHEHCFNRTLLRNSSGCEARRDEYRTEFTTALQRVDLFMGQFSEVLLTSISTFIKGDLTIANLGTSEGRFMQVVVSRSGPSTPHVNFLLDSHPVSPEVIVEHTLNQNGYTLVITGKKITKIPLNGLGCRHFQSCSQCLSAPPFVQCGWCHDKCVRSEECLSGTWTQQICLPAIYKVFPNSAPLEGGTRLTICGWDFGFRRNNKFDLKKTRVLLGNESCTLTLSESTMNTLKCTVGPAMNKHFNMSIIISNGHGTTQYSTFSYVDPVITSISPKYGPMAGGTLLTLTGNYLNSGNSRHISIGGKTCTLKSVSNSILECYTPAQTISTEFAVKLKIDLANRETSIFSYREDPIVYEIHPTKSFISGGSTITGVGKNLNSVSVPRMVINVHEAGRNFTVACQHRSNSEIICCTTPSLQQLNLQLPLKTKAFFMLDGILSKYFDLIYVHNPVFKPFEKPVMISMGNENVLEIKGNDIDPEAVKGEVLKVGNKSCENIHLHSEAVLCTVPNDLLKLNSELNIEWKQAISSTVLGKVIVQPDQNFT

B1: AbF46, mouse monoclonal antibody to c-Met (antibody, V domains shown)
VH: EVKLVESGGGLVQPGGSLRLSCATSGFTFTDYYMSWVRQPPGKALEWLGFIRNKANGYTTEYSASVKGRFTISRDNSQSILYLQMDTLRAEDSATYYCARDNWFAYWGQGTLVTVSA
VL: DILMTQSPSSLTVSAGEKVTMSCKSSQSLLASGNQNNYLAWHQQKPGRSPKMLIIWASTRVSGVPDRFIGSGSGTDFTLTINSVQAEDLAVYYCQQSYSAPLTFGAGTKLELK
notes: Tested as hybridoma culture supernatant in the selection ELISA; also called monoclonal antibody produced by hybridoma KCLRF-BP-00220
B1: binds.
